The target in assay [1] is T1, full-length (uncleaved) human CDCP1 on cells (human, UniProt Q9H5V8 30-836).
T1 construct: HPAC cells express mostly uncleaved CDCP1 (endogenous); also called fl-CDCP1; uncleaved CDCP1 on HPAC cells
T1 sequence: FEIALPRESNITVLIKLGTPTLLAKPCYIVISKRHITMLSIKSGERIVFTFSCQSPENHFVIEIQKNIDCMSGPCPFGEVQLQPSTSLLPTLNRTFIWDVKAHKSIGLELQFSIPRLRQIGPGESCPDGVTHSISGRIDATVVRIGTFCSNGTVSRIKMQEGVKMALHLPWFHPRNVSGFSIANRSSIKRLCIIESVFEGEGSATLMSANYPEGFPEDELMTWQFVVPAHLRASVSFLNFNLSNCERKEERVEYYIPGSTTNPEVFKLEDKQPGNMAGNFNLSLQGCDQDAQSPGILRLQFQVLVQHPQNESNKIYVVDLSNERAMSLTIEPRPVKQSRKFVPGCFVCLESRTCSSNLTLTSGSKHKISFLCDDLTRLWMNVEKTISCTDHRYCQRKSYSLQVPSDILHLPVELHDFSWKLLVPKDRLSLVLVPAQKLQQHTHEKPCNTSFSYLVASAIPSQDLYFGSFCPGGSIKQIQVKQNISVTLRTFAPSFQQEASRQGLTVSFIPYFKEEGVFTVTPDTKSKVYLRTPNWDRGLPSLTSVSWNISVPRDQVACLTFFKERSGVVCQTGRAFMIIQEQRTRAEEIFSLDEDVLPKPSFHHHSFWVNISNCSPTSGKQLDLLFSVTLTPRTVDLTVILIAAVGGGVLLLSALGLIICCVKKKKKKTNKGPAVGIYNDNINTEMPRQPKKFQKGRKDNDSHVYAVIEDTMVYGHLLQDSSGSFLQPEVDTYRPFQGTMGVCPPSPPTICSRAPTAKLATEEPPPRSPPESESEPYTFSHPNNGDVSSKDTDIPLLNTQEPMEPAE
In words: flow cytometry, dose response on HEK293T-flCDCP1 cells (CDCP1 WT).

For assay [2], the target named is T2, c-CDCP1 (Cut 3) on HEK293T cells (human, UniProt Q9H5V8 30-369; Q9H5V8 370-836).
T2 construct: T2A remnants not described; also called HEK293T c-CDCP1
T2 sequence 1: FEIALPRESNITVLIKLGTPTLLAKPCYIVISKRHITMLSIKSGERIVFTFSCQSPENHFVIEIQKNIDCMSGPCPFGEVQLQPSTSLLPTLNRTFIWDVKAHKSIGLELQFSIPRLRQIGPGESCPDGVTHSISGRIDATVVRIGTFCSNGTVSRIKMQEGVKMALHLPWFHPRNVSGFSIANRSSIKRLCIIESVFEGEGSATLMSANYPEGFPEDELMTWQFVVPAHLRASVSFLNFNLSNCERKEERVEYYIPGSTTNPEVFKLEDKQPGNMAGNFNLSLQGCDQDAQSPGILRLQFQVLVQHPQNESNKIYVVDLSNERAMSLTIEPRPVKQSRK
T2 sequence 2: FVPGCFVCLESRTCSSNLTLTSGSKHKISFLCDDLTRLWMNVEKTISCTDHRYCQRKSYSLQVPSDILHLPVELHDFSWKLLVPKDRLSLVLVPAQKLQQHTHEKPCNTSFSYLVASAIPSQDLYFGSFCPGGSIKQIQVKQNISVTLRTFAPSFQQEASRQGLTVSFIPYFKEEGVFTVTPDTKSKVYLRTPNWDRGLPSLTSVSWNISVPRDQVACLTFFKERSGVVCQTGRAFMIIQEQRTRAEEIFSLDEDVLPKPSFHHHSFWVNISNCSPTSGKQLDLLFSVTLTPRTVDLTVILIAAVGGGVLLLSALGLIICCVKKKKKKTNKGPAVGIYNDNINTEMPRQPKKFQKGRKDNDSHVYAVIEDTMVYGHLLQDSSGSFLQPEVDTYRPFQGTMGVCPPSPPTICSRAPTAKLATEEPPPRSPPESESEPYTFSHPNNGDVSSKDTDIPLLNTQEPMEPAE
In words: flow cytometry, dose response on HEK293T-cCDCP1 cells (CDCP1 WT). A general note: A flow cytometer gives signals particle by particle.

For assay [3], the target named is T3, NTF immobilized via the N-termini (human, UniProt Q9H5V8 30-367, limits assumed).
T3 sequence: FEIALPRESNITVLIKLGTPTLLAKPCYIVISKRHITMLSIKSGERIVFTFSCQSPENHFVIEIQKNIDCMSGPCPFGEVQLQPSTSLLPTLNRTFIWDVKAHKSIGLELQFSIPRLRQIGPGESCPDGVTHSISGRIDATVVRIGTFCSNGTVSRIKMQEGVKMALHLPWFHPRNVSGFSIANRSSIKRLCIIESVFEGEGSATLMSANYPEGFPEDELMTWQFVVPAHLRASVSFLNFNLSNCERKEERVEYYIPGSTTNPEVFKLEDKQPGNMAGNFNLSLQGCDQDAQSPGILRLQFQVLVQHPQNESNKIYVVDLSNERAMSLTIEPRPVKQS
As to the kind of experiment: multipoint BLI (Octet), His-NTF on a Ni-NTA biosensor, CL03 Fab at 100, 50, 25, 12.5, 6.25 nM. How it is done: (§1) BLI experiments were performed using an Octet RED384 instrument (ForteBio). Biotinylated proteins were immobilized on a streptavidin (SA) biosensor and His-tagged proteins were immobilized on a Ni-NTA biosensor. Different concentrations of analyte in PBS pH 7.4+0.05% Tween-20+0.2% BSA (PBSTB) were used as analyte. Affinities (KDS) were calculated from a global fit (1:1) of the data using the Octet RED384 software.
(§2) To investigate the binding mechanism of CL03, the binding of CL03 to different CDCP1 antigens was measured by BLI using standard methods. In instances when the C-termini of the NTF was immobilized either via an Fc domain or directly to the biosensor surface, there was no binding of CL03 (FIG. 6A-FIG. 6B). In instances when the NTF was immobilized via the N-termini, CL03 bound NTF at similar affinity to the full c-CDCP1 antigen (FIG. 6B-FIG. 6C). Additionally, it was observed that CL03 recognized an uncleaved CDCP1 variant where a 16-amino acid linker was inserted between CUB1 and CUB2 at the R368/K369 proteolysis site (FIG. 6D).
A general note: In BLI a coated tip is dipped into the sample, and binding shifts an interference pattern.

The target in assay [4] is T4, c-CDCP1 (Cut 3) ectodomain (human, UniProt Q9H5V8 30-369; Q9H5V8 370-667).
T4 construct: Made by co-transfection of NTF and CTF plasmids, purified by Ni-NTA (tag not described); also called cCDCP1 ECD cut 3
T4 sequence 1: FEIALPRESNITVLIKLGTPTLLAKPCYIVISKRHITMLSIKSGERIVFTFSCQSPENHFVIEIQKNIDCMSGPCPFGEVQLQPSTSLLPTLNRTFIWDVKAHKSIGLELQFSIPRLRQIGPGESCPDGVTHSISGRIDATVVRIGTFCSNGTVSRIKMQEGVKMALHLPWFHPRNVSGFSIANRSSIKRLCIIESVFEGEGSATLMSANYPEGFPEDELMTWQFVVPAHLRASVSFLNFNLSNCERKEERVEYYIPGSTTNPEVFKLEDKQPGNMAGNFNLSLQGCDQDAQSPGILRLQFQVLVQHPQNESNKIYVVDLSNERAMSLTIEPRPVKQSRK
T4 sequence 2: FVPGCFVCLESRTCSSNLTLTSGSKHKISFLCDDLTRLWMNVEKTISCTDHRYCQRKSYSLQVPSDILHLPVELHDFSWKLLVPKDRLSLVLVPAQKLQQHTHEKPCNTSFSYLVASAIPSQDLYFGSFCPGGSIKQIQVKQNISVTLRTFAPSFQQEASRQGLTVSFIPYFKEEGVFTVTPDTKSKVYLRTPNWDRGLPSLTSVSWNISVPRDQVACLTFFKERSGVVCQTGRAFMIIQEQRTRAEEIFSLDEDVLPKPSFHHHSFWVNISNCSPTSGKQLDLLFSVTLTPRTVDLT
As to the kind of experiment: multipoint BLI (Octet), c-CDCP1 (Cut 3) held by its His-tag on a Ni-NTA biosensor, CL03 Fab at 100, 50, 25, 12.5, 6.25 nM. The protocol: as §1, §2

For a further assay, the target named is T5, c-CDCP1-Fc (Cut 1) (human, UniProt Q9H5V8 30-365; Q9H5V8 366-667).
T5 construct: Co-transfection of NTF and CTF-Fc plasmids; not shown: Fc domain
T5 sequence 1: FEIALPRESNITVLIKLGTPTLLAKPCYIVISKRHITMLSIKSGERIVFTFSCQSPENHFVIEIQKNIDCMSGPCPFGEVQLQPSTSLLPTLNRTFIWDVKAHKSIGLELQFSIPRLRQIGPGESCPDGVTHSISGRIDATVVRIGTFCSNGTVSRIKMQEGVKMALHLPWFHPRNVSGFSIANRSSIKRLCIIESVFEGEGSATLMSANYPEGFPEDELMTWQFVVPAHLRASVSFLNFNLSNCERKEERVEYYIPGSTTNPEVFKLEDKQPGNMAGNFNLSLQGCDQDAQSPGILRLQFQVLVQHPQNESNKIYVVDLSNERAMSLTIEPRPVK
T5 sequence 2: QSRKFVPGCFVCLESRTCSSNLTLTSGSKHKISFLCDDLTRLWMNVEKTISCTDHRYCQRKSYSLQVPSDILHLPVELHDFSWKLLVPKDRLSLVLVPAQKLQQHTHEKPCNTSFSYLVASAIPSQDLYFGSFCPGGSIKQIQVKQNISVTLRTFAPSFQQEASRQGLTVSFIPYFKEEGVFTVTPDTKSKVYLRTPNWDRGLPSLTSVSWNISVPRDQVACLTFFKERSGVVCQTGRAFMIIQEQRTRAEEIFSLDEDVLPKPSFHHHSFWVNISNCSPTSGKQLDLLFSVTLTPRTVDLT
In words: BLI (Octet), table of in vitro binding affinities. The protocol: as §1

Another assay addresses T6, c-CDCP1-Fc (Cut 3) (human, UniProt Q9H5V8 30-369; Q9H5V8 370-667).
T6 construct: Co-transfection of NTF and CTF-Fc plasmids; not shown: Fc domain
T6 sequence 1: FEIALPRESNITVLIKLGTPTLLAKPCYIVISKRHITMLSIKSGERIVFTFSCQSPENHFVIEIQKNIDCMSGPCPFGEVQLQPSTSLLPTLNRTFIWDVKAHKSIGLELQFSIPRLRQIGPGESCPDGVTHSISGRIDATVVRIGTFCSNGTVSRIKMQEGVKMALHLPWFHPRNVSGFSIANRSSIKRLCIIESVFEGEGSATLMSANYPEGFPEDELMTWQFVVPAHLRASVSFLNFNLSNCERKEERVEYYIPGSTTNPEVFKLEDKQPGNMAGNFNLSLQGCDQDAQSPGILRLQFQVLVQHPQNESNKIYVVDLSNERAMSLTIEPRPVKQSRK
T6 sequence 2: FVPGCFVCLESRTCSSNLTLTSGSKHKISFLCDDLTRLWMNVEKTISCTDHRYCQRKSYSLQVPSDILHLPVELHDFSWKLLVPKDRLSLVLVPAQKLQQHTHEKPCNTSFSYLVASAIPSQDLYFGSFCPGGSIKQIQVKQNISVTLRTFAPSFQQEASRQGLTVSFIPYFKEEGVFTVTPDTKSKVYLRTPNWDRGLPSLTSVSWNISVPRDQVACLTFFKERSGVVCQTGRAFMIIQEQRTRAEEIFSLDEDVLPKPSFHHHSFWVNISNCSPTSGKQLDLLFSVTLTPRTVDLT
As to the kind of experiment: BLI (Octet), table of in vitro binding affinities. How it is done: as §1

A further assay deals with T7, c-CDCP1-Fc (Cut 2) (human, UniProt Q9H5V8 30-368; Q9H5V8 369-667).
T7 construct: Co-transfection of NTF and CTF-Fc plasmids; not shown: Fc domain
T7 sequence 1: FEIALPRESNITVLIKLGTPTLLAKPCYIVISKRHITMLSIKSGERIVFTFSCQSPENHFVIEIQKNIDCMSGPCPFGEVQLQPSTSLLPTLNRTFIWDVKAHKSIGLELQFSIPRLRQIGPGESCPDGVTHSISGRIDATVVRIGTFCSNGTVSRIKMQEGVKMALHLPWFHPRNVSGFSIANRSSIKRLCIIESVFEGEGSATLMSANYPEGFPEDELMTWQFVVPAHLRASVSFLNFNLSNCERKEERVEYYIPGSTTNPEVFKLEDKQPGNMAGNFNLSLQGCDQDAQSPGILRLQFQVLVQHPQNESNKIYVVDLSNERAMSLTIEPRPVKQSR
T7 sequence 2: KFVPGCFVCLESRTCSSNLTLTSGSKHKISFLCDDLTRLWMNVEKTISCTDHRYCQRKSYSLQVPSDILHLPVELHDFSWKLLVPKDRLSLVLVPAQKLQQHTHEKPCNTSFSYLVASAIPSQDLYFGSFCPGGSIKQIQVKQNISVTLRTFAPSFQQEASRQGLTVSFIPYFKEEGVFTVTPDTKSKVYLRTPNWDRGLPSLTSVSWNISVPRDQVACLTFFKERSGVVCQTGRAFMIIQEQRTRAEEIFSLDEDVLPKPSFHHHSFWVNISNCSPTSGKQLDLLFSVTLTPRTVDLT
In words: BLI (Octet), table of in vitro binding affinities. How it is done:
as §1

By EC50 (read off the curve) is commonly meant the concentration needed to bring the measured effect to its halfway point. The low end stands for higher potency in that assay, the high end for lower potency in that assay. What is called Kd is the constant that tells how readily two partners part at equilibrium. By koff is commonly meant the rate constant with which the complex falls apart. High values mean a short-lived complex, low ones a long-lived complex. What is called kon is the rate constant with which the complex forms.

B1: IgG 4A06 (antibody, V domains shown)
VH: EVQLVESGGGLVQPGGSLRLSCAASGFNLSYYYIHWVRQAPGKGLEWVASIYSSSSYTSYADSVKGRFTISADTSKNTAYLQMNSLRAEDTAVYYCARAYYGFDYWGQGTLVTVSS
VL: DIQMTQSPSSLSASVGDRVTITCRASQSVSSAVAWYQQKPGKAPKLLIYSASSLYSGVPSRFSGSRSGTDFTLTISSLQPEDFATYYCQQSYYYYPITFGQGTKVEIK
In the case of B1, the 50% effective concentration (EC50 (read off the curve)) in assay [1] is ~1 nM; in assay [2], ~0.4 nM.

B2: CL03 Fab (Fab, V domains shown)
VH: EVQLVESGGGLVQPGGSLRLSCAASGFNFSSYSIHWVRQAPGKGLEWVASIYPYSGSTYYADSVKGRFTISADTSKNTAYLQMNSLRAEDTAVYYCARQSHSYYSHTWWVSYGMDYWGQGTLVTVSS
VL: DIQMTQSPSSLSASVGDRVTITCRASQSVSSAVAWYQQKPGKAPKLLIYSASSLYSGVPSRFSGSRSGTDFTLTISSLQPEDFATYYCQQSGQRPITFGQGTKVEIKR
notes: also called Fab CL03
Turning to B2, the dissociation constant (Kd) in assay [3] is 10.5 nM; in assay [4], 9.74 nM; with c-CDCP1-Fc (Cut 1) it was 2.26 nM; with c-CDCP1-Fc (Cut 3), 3.59 nM; with c-CDCP1-Fc (Cut 2), 3.91 nM. The koff in the assay with c-CDCP1-Fc (Cut 1) came out at 0.000648 s⁻¹. In addition, the kon with c-CDCP1-Fc (Cut 1) is 288000 M⁻¹ s⁻¹.

The record behind these values is patent publication US20240376224A1 (University of California, published 2024).
